Where no end group is shown, it is not given here.
B1: CT132_HUMAN peptide IKSIITL (peptide)
peptide: IKSIITL
notes: spot-synthesized on membrane; also called position Nr 45
B2: KLH32_HUMAN peptide ILCDITL (peptide)
peptide: ILCDITL
notes: spot-synthesized on membrane; also called position Nr 43
B3: CBPC3_HUMAN peptide ILTITTP (peptide)
peptide: ILTITTP
notes: spot-synthesized on membrane; also called position Nr 39
B4: AL2SA_HUMAN peptide GLTIPTL (peptide)
peptide: GLTIPTL
notes: spot-synthesized on membrane; also called position Nr 52
B5: SCC4_HUMAN peptide IQTISTL (peptide)
peptide: IQTISTL
notes: spot-synthesized on membrane; also called position Nr 55
B6: MP2K4_HUMAN peptide ILGKITL (peptide)
peptide: ILGKITL
notes: spot-synthesized on membrane; also called position Nr 17
B7: BCL6B_HUMAN peptide ILTDVTL (peptide)
peptide: ILTDVTL
notes: spot-synthesized on membrane; also called position Nr 40
B8: KV117_HUMAN peptide TLTISTL (peptide)
peptide: TLTISTL
notes: spot-synthesized on membrane; also called position Nr 15
B9: BPTF_HUMAN peptide VLTISTL (peptide)
peptide: VLTISTL
notes: spot-synthesized on membrane; also called position Nr 10
B10: CC132_HUMAN peptide ILTNTTL (peptide)
peptide: ILTNTTL
notes: spot-synthesized on membrane; also called position Nr 21
B11: LRC40_HUMAN peptide IHAIITL (peptide)
peptide: IHAIITL
notes: spot-synthesized on membrane; also called position Nr 27
B12: PGTA_HUMAN peptide LLTIILL (peptide)
peptide: LLTIILL
notes: spot-synthesized on membrane; also called position Nr 9
B13: EPMIP_HUMAN peptide LLTIINL (peptide)
peptide: LLTIINL
notes: spot-synthesized on membrane; also called position Nr 6
B14: CASP8_HUMAN peptide ILTILTE (peptide)
peptide: ILTILTE
notes: spot-synthesized on membrane; also called caspase-8 (CASP8) segment; position Nr 11
B15: BN3D2_HUMAN peptide ALTFITL (peptide)
peptide: ALTFITL
notes: spot-synthesized on membrane; also called position Nr 7
B16: RTTN_HUMAN peptide ILTICTK (peptide)
peptide: ILTICTK
notes: spot-synthesized on membrane; also called position Nr 47
B17: CCNI2_HUMAN peptide ALVIITL (peptide)
peptide: ALVIITL
notes: spot-synthesized on membrane; also called position Nr 23
B18: ZN830_HUMAN peptide ILTIKEL (peptide)
peptide: ILTIKEL
notes: spot-synthesized on membrane; also called position Nr 31
B19: CYTIP_HUMAN peptide LLTIETL (peptide)
peptide: LLTIETL
notes: spot-synthesized on membrane; also called position Nr 24
B20: MX2_HUMAN peptide DLTIIDL (peptide)
peptide: DLTIIDL
notes: spot-synthesized on membrane; also called position Nr 50
B21: CM031_HUMAN peptide KLTIITS (peptide)
peptide: KLTIITS
notes: spot-synthesized on membrane; also called position Nr 53
B22: CPNE2_HUMAN peptide ILLIITD (peptide)
peptide: ILLIITD
notes: spot-synthesized on membrane; also called Copine-2 (CPNE2) segment; position Nr 42
B23: SMG1_HUMAN peptide ILTLIEL (peptide)
peptide: ILTLIEL
notes: spot-synthesized on membrane; also called position Nr 41
B24: SPEF2_HUMAN peptide ILSIDTL (peptide)
peptide: ILSIDTL
notes: spot-synthesized on membrane; also called position Nr 54
B25: GCDH_HUMAN peptide MLTEITL (peptide)
peptide: MLTEITL
notes: spot-synthesized on membrane; also called position Nr 19
B26: P73_HUMAN peptide ILIIITL (peptide)
peptide: ILIIITL
notes: spot-synthesized on membrane; also called p73β; position Nr 35
B27: P63_HUMAN peptide ILIIVTL (peptide)
peptide: ILIIVTL
notes: spot-synthesized on membrane; also called p63β; position Nr 16
B28: P53_HUMAN peptide ILTIITL (immobilised spot) (peptide)
peptide: ILTIITL
notes: spot-synthesized on membrane; also called p53β; position Nr 1
B29: DYH3_HUMAN peptide ILTFKTL (peptide)
peptide: ILTFKTL
notes: spot-synthesized on membrane; also called position Nr 12
B30: RTEL1_HUMAN peptide ILTSGTL (peptide)
peptide: ILTSGTL
notes: spot-synthesized on membrane; also called position Nr 36
B31: DIP2B_HUMAN peptide ILTSQTL (peptide)
peptide: ILTSQTL
notes: spot-synthesized on membrane; also called position Nr 20
B32: TAF4B_HUMAN peptide ILKQITL (peptide)
peptide: ILKQITL
notes: spot-synthesized on membrane; also called position Nr 49
B33: BPA1_HUMAN peptide ILKNITL (peptide)
peptide: ILKNITL
notes: spot-synthesized on membrane; also called position Nr 46
B34: CD2A1_HUMAN peptide ILRQITL (peptide)
peptide: ILRQITL
notes: spot-synthesized on membrane; also called position Nr 56
B35: CGRF1_HUMAN peptide ITTGITL (peptide)
peptide: ITTGITL
notes: spot-synthesized on membrane; also called CGRF1 segment; position Nr 30
B36: CD041_HUMAN peptide ITTVITL (peptide)
peptide: ITTVITL
notes: spot-synthesized on membrane; also called position Nr 8
B37: VATA_HUMAN peptide IYTGITL (peptide)
peptide: IYTGITL
notes: spot-synthesized on membrane; also called position Nr 14
B38: PDS5A_HUMAN peptide IVTIITA (peptide)
peptide: IVTIITA
notes: spot-synthesized on membrane; also called position Nr 3
B39: HEAT1_HUMAN peptide ILTKISL (peptide)
peptide: ILTKISL
notes: spot-synthesized on membrane; also called position Nr 13
B40: TRI18_HUMAN peptide CLTIITG (peptide)
peptide: CLTIITG
notes: spot-synthesized on membrane; also called position Nr 26
B41: ANXA6_HUMAN peptide ILDIITS (peptide)
peptide: ILDIITS
notes: spot-synthesized on membrane; also called annexin-6 peptide fragment; position Nr 29
B42: Control peptide RRPILTIITLEDGS (peptide)
peptide: RRPILTIITLEDGS
notes: spot-synthesized on membrane; longer peptide that holds ILTIITL; also called position Nr 2
B43: METH_HUMAN peptide ILTIGTG (peptide)
peptide: ILTIGTG
notes: spot-synthesized on membrane; also called methionine synthase (METH) segment; position Nr 38
B44: RFC5_HUMAN peptide ILTEIHL (peptide)
peptide: ILTEIHL
notes: spot-synthesized on membrane; also called position Nr 34
B45: PK3C3_HUMAN peptide ILQIISL (peptide)
peptide: ILQIISL
notes: spot-synthesized on membrane; also called position Nr 18
B46: CXL11_HUMAN peptide IEVIITL (peptide)
peptide: IEVIITL
notes: spot-synthesized on membrane; also called position Nr 32
B47: TAGAP_HUMAN peptide ILTILCL (peptide)
peptide: ILTILCL
notes: spot-synthesized on membrane; also called position Nr 5
B48: DHX29_HUMAN peptide ILQIITE (peptide)
peptide: ILQIITE
notes: spot-synthesized on membrane; also called position Nr 44
B49: PTPC1_HUMAN peptide IKTIINL (peptide)
peptide: IKTIINL
notes: spot-synthesized on membrane; also called position Nr 33
B50: PRA10_HUMAN peptide FLTIFTL (peptide)
peptide: FLTIFTL
notes: spot-synthesized on membrane; also called position Nr 25
B51: LONF2_HUMAN peptide ILVIITR (peptide)
peptide: ILVIITR
notes: spot-synthesized on membrane; also called position Nr 48
B52: KV122_HUMAN peptide ILTISSL (peptide)
peptide: ILTISSL
notes: spot-synthesized on membrane; also called position Nr 22
B53: DHX33_HUMAN peptide ILTIVSL (peptide)
peptide: ILTIVSL
notes: spot-synthesized on membrane; also called position Nr 4
B54: NOL11_HUMAN peptide ILTKYTL (peptide)
peptide: ILTKYTL
notes: spot-synthesized on membrane; also called position Nr 37
B55: MYST3_HUMAN peptide ILTKPTL (peptide)
peptide: ILTKPTL
notes: spot-synthesized on membrane; also called position Nr 28
B56: CND2_HUMAN peptide ILTKSTL (peptide)
peptide: ILTKSTL
notes: spot-synthesized on membrane; also called position Nr 51
B57: FLAG-tagged Cyclin-I2 (other, human, UniProt Q6ZMN8 1-369, looked up)
chain: MASGAQLPPQPSSSEVSAVQSPGGRPGAGLEETALGVPLPPSPGEAPLPRSNRSRCPGTRQPGAASLHAASAAVPVRPRRGTAPAGKTADAVPAAAPEQAPRPAPQSRKPRNLEGDLDERRLLCHLQLAQDREARLWRGGKPQDEICDAFEEVVLWLLRLQNTFYFSQSTFNLALTIFGRLLISVKVKEKYLHCATITSLRLAAKVNEEEEFIPQVKDFTKHYGSDYSPNELLRMELAILDRLHWDLYIGTPLDFLTIFHALVVLSWPHVLELLPQRNPSLHVASLTRQLQHCMAGHQLLQFKGSTLALVIITLELERLMPGWCAPISDLLKKAQVGDMQYSCCKELVMQQLRSLQSSSCTDNFVSPAN
notes: also called CCNI2_HUMAN; CCNI2

Target: T1, biotinylated p53β peptide (human, also: biotinylated, site not given here)
T1 construct: also called biotinylated p53-aggregating peptide
T1 peptide: ILTIITL
Assay: peptide-binding assay: peptide spots on membrane, biotinylated p53β peptide, streptavidin-HRP;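 for Binding intensity (normalized): Membrane-bound synthesized peptide spots exposed to the biotinylated p53 aggregation-prone peptide, bound material revealed via streptavidin-HRP and chemiluminescence, spot signal reflecting binding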

Binder | Binding intensity (normalized)
B1 | 4.39 normalized
B2 | 7.89 normalized
B3 | 19.6 normalized
B4 | 10.9 normalized
B5 | 7.06 normalized
B6 | 16.9 normalized
B7 | 5.88 normalized
B8 | 10.2 normalized
B9 | 6.72 normalized
B10 | 77 normalized
B11 | 8.22 normalized
B12 | 3.95 normalized
B13 | 1.55 normalized
B14 | 11.4 normalized
B15 | 6.47 normalized
B16 | 6.48 normalized
B17 | 43.4 normalized
B18 | 14.1 normalized
B19 | 26.6 normalized

Binder | Binding intensity (normalized)
B20 | 40.2 normalized
B21 | 17.9 normalized
B22 | 111 normalized
B23 | 9.77 normalized
B24 | 79.6 normalized
B25 | 3.03 normalized
B26 | 99 normalized
B27 | 92 normalized
B28 | 100 normalized
B29 | 6.2 normalized
B30 | 17.3 normalized
B31 | 2.39 normalized
B32 | 19.8 normalized
B33 | 12.1 normalized
B34 | 14.7 normalized
B35 | 36.7 normalized
B36 | 5.27 normalized
B37 | 32.1 normalized
B38 | 17.2 normalized

Binder | Binding intensity (normalized)
B39 | 8.65 normalized
B40 | 3.67 normalized
B41 | 78.9 normalized
B42 | 30.9 normalized
B43 | 49.2 normalized
B44 | 12.9 normalized
B45 | 26.3 normalized
B46 | 8.54 normalized
B47 | 4.81 normalized
B48 | 15.6 normalized
B49 | 9.72 normalized
B50 | 26.4 normalized
B51 | 6.81 normalized
B52 | 23.8 normalized
B53 | 10.2 normalized
B54 | 33.3 normalized
B55 | 16.1 normalized
B56 | 17.9 normalized

target: T2, HA-tagged wild-type p53 (human, UniProt P04637 1-393); assay: co-IP, HeLa cells, anti-FLAG IP, anti-HA blot
T2 construct: range 1-393; expressed in cells, tested in cell lysate; also called WT p53; p53-HA
Experimental: HeLa (Human epithelial carcinoma) cells were cultured in DMEM supplemented with 10% fetal calf serum (Gibco), L-glutamine (4 mM), penicillin (100 U/ml), and streptomycin (100 U/ml). Proliferating cell cultures were maintained in a 5% CO2-humidified incubator at 37° C. […] The complex of DNA and FuGENE HD was prepared in 500 μL DMEM and incubated for 20 minutes before adding to cells. For stable transfection, DMEM medium containing 10% fetal calf serum and 500 μg/mL G418 was used to select colonies that carried the transfected vector for six weeks, and expression of the vector was validated by Western blot. Stably transfected cells were maintained in medium containing 250 μg/mL G418 for further analysis. Transfection of siRNA for p53 (Santa Cruz) was performed using X-tremeGENE siRNA transfection reagent (Roche) according to the manufacturer's instructions.
Hela cells co-transfected with mutant HA-p53 and FLAG-tagged proteins were lysed with RIPA buffer (Thermo) with DNase and protease inhibitors (Roche) for 30 minutes on ice. […] After incubation at 21° C. for 1 hour, the agarose beads were rinsed with 200 μL TBS three times, and subsequently eluted by heating at 95° C. in presence of SDS (without DTT). The co-immunoprecipitated p53 was detected with mouse anti-HA antibody or anti-p53.

Binder | binding result
B57 | no binding

Target: T1, biotinylated p53β peptide
Assay: peptide-binding assay: peptide spots on membrane, biotinylated p53β peptide, streptavidin-HRP;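 for Binding intensity (normalized): Membrane-bound synthesized peptide spots exposed to the biotinylated p53 aggregation-prone peptide, bound material revealed via streptavidin-HRP and chemiluminescence, spot signal reflecting binding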
Remark: another data set of the same source
Experimental: Subsequently, the ability of the selected peptides to interact with p53β using an in vitro peptide-binding assay was empirically determined. Therefore, the 56 selected peptides were spot-synthesized on a cellulose membrane, which was subsequently incubated with biotinylated p53β peptide (FIG. 17, panel b). After washing, the membrane was treated with streptavidine-HRP to detect p53β binding (FIG. 17, panel c).
Peptides of selected sequences were spot synthesized on PVDF membrane (PepSpot, JPT). The membranes were blocked by 1% BSA in phosphate-buffered saline for 1 hour at room temperature, and then incubated with biotinylated peptide containing the p53-aggregating sequence for 1 hour. After rinsing with 0.1% TWEEN® 20 in 25 mM MES buffer pH 7.0, membranes were incubated in HRP-labeled Streptavidin (Thermo) and visualized with electrochemical luminescence (ECL) system.

Binder | Coaggregation (peptide binding)
B10 | 77%
B14 | 11.4%
B17 | 43.4%
B22 | 111%
B24 | 79.6%
B26 | 99%
B27 | 92%
B41 | 78.9%
B43 | 49.2%
B47 | 4.8%
B53 | 10.2%

From patent publication US20140170239A1 (VRIJE UNIVERSITEIT BRUSSEL, published 2014)
